Source: the Immune Epitope Database (IEDB)

Molecular target: HLA-A*02:01
Experiment: IEDB peptide-MHC binding, cellular MHC/competitive/fluorescence; ≥ and ≤ were set here for values at or beyond the usual limits of such assays
Conditions: source organism: Human papillomavirus 16

Sequence | IC50 [µM]
EYMLDLQPET | 45.3
YMLDLQPE | 8.07
TLEDLLMGT | 64.6
YMLDLQPETTD | 2.37
TLHEYMLDLQP | 19.4
EDLLMGTLGIV | 14.2
RTLEDLLMGTL | 2.69
IRTLEDLLMGT | 31.9
ELQTTIHDI | 36.9
MLDLQPET | 53.7
RTLEDLLMGT | 66.9
